Experimental data: paper PMC6899460, “The Pseudomonas aeruginosa T6SS Delivers a Periplasmic Toxin that Disrupts Bacterial Cell Morphology” (Cell Reports, 2019)

Biological target: the molecule itself
Experiment: SEC-MALS; SEC-MALLS and refractometry; Superdex 75 10/30 column, 20°C, 0.5 ml/min; fractions pooled from two peaks obtained after preparatory size-exclusion chromatography; dimer and monomer

B1: VgrG2b C-terminal domain (VgrG2bC-ter) (domain or fragment)
chain: VGETQRRFVLKQLDGQTAMPNVPYTITMANGEVIEGVTDAEGATQLLQKDAMNIAKVDMKHTKSPASAVAGIAAAVGAAVAVGKLLGGPDAEAGRALSEGEISLAKGVFGDSIDYSTVRLRDEDYVPWQGKDYVMAPNGHIYFGEELRGVADWSLESLQRQGLFIHEMTHVWQHQHGVNVLLVGAYQQARQFLLGDQYAYRLEPGKTLKDYNIEQQGDIVRDYFLEKNEFGEASANSRFAGVLKNFPTGY
notes: VgrG2b of Pseudomonas aeruginosa PAO1, C-terminal domain, residues 770-1,019; Monomeric and dimeric species were both found in solution; also called VgrG2b metallopeptidase domain; source: E. coli BL21 (λDE3) pET28a-vgrG2bC-ter, purified (Ni2+-NTA, SEC); not shown: His6, C-terminal, cleaved
stoichiometry N: 2
